Like-named read-outs stand apart in the source and are kept apart here.

For data set [1], the system named is 3′-amino terminal DNA primer / DNA template duplex. The data set can be described thus: 3′-amino primer extension assay (single nucleotide addition, pre-steady-state NP activity). In kind it is biochemical. How it is done:
(§1) Primer extension assays. Except where indicated, all extension reactions were performed with 1 μM fluorescein-labeled primer, 1.5 μM template, and ˜1.1 μM purified His6-tagged protein at 55° C. in a reaction buffer composed of 40 mM Tris-HCl, pH 8.8, 1 mM DTT, and a divalent cation as specified, typically 10 mM CaCl2. Reaction mixtures were equilibrated at the indicated reaction temperature for 1 min and initiated by addition of substrate. Progress was monitored by sampling 1 μL from the reaction manually quenched into 24 μL of chilled 90% formamide, 10 mM EDTA. Quenched samples were denatured at 90° C. for 1 min and cooled to room temperature prior to separation by denaturing polyacrylamide gel electrophoresis on 20% TBE-urea gels. To maintain strand separation for long extension products, as in FIGS. 3F-31I, an unlabeled DNA oligonucleotide complementary to the template was added to the quenching buffer (˜2 μM) prior to denaturation. Typically, 3 or 4 μL of quenched sample was loaded per lane for gels of 0.75-mm thickness. Bands were visualized with a Typhoon laser scanning imager (GE Amersham) and quantified with the manufacturer's software. For acid digestion of extended products, a reaction sample was diluted with 2.5 volumes of 1% acetic acid, 10 mM EDTA in formamide and digested at 75° C. for 45 min prior to gel separation.

Data set [2] concerns 3′-amino terminal DNA primer / mixed sequence template duplex. The data set can be described thus: Multiple-turnover NP-DNA synthesis by 3′-amino primer extension with all four nNTPs on a mixed sequence template. In kind it is biochemical. Particulars: 55° C., Ca2+. As for the experimental part:
as §1

B1: F710Y: B. stearothermophilus DNA polymerase I large fragment (BF) with single active site mutation F710Y in the O helix (protein, listed as Bacillus stearothermophilus)
chain: MKNKLVLIDGNSVAYRAFFALPLLHNDKGIHTNAVYGFTMMLNKILAEEQPTHILVAFDAGKTTFRHETFQDYKGGRQQTPPELSEQFPLLRELLKAYRIPAYELDHYEADDIIGTMAARAEREGFAVKVISGDRDLTQLASPQVTVEITKKGITDIESYTPETVVEKYGLTPEQIVDLKGLMGDKSDNIPGVPGIGEKTAVKLLKQFGTVENVLASIDEIKGEKLKENLRQYRDLALLSKQLAAICRDAPVELTLDDIVYKGEDREKVVALFQELGFQSFLDKMAVQTDEGEKPLAGMDFAIADSVTDEMLADKAALVVEVVGDNYHHAPIVGIALANERGRFFLRPETALADPKFLAWLGDETKKKTMFDSKRAAVALKWKGIELRGVVFDLLLAAYLLDPAQAAGDVAAVAKMHQYEAVRSDEAVYGKGAKRTVPDEPTLAEHLVRKAAAIWALEEPLMDELRRNEQDRLLTELEQPLAGILANMEFTGVKVDTKRLEQMGAELTEQLQAVERRIYELAGQEFNINSPKQLGTVLFDKLQLPVLKKTKTGYSTSADVLEKLAPHHEIVEHILHYRQLGKLQSTYIEGLLKVVHPVTGKVHTMFNQALTQTGRLSSVEPNLQNIPIRLEEGRKIRQAFVPSEPDWLIFAADYSQIELRVLAHIAEDDNLIEAFRRGLDIHTKTAMDIFHVSEEDVTANMRRQAKAVNYGIVYGISDYGLAQNLNITRKEAAEFIERYFASFPGVKQYMDNIVQEAKQKGYVTTLLHRRRYLPDITSRNFNVRSFAERTAMNTPIQGSAADIIKKAMIDLSVRLREERLQARLLLQVHDELILEAPKEEIERLCRLVPEVMEQAVTLRVPLKVDYHYGPTWYDAK
On to B1, for which the “Selectivity dCTP/nCTP, ratio (kpol/Kd, app)dCTP/(kpol/Kd, app)nCTP” value in data set [1] (10 mM CaCl2, pre-steady-state) amounted to 9. The Kd was 1.1 µM in data set [1] (3′-amino primer extension, 10 mM CaCl2, pre-steady-state, read-out: Kd, app dCTP) and 3.6 µM in data set [1] (3′-amino primer extension, 10 mM CaCl2, pre-steady-state, read-out: Kd, app nCTP). Also, in data set [1] (3′-amino primer extension, varying dCTP, 10 mM CaCl2, pre-steady-state, 55° C., pH 8.8), the “kpol dCTP” value turned out to be 0.191 min⁻¹. In addition, the “kpol nCTP” value in data set [1] (3′-amino primer extension, varying nCTP, 10 mM CaCl2, pre-steady-state, 55° C., pH 8.8) was determined as 0.069 min⁻¹. Moreover, the “increase in kpol for dCTP vs. wild-type” value in data set [1] (Ca2+ cofactor) is on record as 2.6 fold. Also, the “increase in kpol for nCTP (NP activity) vs. wild-type” value in data set [1] (Ca2+ cofactor) amounted to 21 fold. Also, the “transient kpol/Kd for NP-DNA synthesis with Ca2+” value in data set [1] (nCTP, Ca2+, from Table 4) came to 320 M⁻¹ s⁻¹. Also, the “maximum reaction velocity / NP activity, Ca2+ vs. Mg2+” value in data set [1] (saturating Ca2+ vs. Mg2+, faster with Ca2+) is given as 5 fold. Also, in data set [1] (with Ca2+), the “apparent binding affinity for nCTP vs. dCTP, effect of the mutation” value is recorded as “unaffected”. For the same molecule, in data set [1] (with F710Y), the “kinetic disadvantage of NP-DNA polymerase activity relative to native phosphodiester bond forming activity” value is “approximately four orders-of-magnitude”. In addition, in data set [2], the “time to full length +28 nt NP-DNA product” value was < 24 h.

The record behind these values is patent publication US12428658B2, “Methods and compositions for enzymatic polymerization of N3′→P5′ phosphoramidate DNA” (The General Hospital Corporation, priority 2019, dated 2025).
